Target: Soluble SorCS2 (extracellular domain of SorCS2) (UniProt Q96PQ0 51-1078)
Assay: SPR

Chain of Soluble SorCS2 (extracellular domain of SorCS2) (Q96PQ0 51-1078): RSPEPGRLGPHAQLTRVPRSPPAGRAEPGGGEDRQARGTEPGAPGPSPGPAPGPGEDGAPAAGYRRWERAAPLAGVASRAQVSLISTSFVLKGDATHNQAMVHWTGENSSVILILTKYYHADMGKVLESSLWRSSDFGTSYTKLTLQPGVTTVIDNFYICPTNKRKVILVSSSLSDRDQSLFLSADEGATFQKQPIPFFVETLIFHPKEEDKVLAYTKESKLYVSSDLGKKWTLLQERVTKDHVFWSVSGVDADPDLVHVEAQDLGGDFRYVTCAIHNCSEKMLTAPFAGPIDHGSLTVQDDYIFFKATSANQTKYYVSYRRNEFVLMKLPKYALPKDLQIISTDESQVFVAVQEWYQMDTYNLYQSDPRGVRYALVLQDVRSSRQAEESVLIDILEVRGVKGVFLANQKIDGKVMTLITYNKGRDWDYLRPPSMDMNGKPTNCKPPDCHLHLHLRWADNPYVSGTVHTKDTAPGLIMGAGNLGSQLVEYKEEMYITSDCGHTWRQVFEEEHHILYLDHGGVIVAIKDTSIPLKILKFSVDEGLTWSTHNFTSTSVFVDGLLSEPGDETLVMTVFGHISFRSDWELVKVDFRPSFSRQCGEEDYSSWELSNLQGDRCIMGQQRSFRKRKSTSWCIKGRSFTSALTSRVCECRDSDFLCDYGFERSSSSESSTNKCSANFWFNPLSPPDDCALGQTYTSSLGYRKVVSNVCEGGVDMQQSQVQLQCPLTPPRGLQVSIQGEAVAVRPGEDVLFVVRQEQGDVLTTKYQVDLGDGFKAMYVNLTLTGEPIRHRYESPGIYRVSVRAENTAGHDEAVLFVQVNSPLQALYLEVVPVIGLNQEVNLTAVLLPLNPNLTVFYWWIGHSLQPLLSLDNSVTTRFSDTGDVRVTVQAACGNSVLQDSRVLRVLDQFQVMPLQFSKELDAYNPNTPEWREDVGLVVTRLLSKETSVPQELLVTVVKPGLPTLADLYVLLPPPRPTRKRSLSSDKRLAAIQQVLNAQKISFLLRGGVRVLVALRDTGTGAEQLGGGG

Kd: ~3 nM
B1: human progranulin (hPGRN) used in SPR (ligand, UniProt P28799 18-593, looked up)
chain: TRCPDGQFCPVACCLDPGGASYSCCRPLLDKWPTTLSRHLGGPCQVDAHCSAGHSCIFTVSGTSSCCPFPEAVACGDGHHCCPRGFHCSADGRSCFQRSGNNSVGAIQCPDSQFECPDFSTCCVMVDGSWGCCPMPQASCCEDRVHCCPHGAFCDLVHTRCITPTGTHPLAKKLPAQRTNRAVALSSSVMCPDARSRCPDGSTCCELPSGKYGCCPMPNATCCSDHLHCCPQDTVCDLIQSKCLSKENATTDLLTKLPAHTVGDVKCDMEVSCPDGYTCCRLQSGAWGCCPFTQAVCCEDHIHCCPAGFTCDTQKGTCEQGPHQVPWMEKAPAHLSLPDPQALKRDVPCDNVSSCPSSDTCCQLTSGEWGCCPIPEAVCCSDHQHCCPQGYTCVAEGQCQRGSEIVAGLEKMPARRASLSHPRDIGCDQHTSCPVGQTCCPSLGGSWACCQLPHAVCCEDRQHCCPAGYTCNVKARSCEKEVVSAQPATFLARSPHVGVKDVECGEGHFCHDNQTCCRDNRQGWACCPYRQGVCCADRRHCCPAGFRCAARGTKCLRREAPRWDAPLRDPALRQLL
